# T1: TALE13 +50 FokI (Xanthomonas axonopodis (engineered))
# T1 chain: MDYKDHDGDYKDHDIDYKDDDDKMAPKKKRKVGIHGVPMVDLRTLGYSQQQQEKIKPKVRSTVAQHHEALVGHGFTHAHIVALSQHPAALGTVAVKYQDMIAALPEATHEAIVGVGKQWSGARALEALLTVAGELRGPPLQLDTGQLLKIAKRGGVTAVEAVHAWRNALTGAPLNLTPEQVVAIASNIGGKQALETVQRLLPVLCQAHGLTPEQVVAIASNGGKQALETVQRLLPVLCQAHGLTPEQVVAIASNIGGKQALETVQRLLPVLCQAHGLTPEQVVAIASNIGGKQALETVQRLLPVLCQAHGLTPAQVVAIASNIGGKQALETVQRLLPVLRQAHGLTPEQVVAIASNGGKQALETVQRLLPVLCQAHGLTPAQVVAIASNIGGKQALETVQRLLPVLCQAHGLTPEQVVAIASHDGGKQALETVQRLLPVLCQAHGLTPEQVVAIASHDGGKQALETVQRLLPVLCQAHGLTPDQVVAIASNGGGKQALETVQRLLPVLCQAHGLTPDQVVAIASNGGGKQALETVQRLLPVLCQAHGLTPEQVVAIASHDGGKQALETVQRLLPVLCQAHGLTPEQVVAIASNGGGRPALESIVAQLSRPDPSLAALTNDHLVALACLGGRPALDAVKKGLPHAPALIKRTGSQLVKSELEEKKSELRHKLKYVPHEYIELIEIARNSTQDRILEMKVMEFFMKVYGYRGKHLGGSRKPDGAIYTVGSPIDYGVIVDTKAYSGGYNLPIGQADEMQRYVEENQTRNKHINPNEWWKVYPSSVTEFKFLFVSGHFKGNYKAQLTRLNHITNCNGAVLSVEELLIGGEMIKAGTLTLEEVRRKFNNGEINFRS
# B1: TALE13 target (dsDNA)
# DNA 1: TATAAATACCTTCT
# DNA 2: AGAAGGTATTTATA
# Columns and labels:
# TALE13 +50 FokI = molecular target: T1, TALE13 +50 FokI; test: cleavage_in_vitro; two inverted sites, 16 bp gap; NEB Buffer 2, 37 C; conditions: tags: FLAG, NLS, chain copies: 2
# Method: TALE domain fusions were also constructed using Fold cleavage half domains. For these examples, wild type FokI half cleavage domains were used so that for nuclease activity, a homodimer must be formed from two of the fusions. For these fusions, the TALE13 DNA binding domain was fused to each FokI half domain by cloning the TALE DNA binding domain into a plasmid adjacent to FokI-specifying sequence. In addition, various linkers were tested for use between the DNA binding domain and the nuclease domain. Linkers L2 and L8 were used which are as follows: L2=GS (SEQ ID NO:71) and L8=[…] (SEQ ID NO:72). The target sites were cloned into a TOPO2.1 target vector (Invitrogen) with varying gap spacings between each target binding site such that the two were separated from each other by 2 to 22 bp. PCR amplification of an approximately 1 kb region of the target vector was done to generate the target DNAs. The TALE DNA binding domains were also truncated as described previously, and are described using the same nomenclature as described above in Examples 2 and 6. The TALE domain nuclease fusion clones were expressed in the TNT Rabbit Reticulocyte Lysate system by adding 5 μL of water containing 250 nanograms of the nuclease fusion clone plasmid to 20 μL of lysate and incubating at 30° C. for 90 minutes.
# The lysate was then used to cleave the target DNAs as follows: 2.5 μL of lysate were added to a 50 μL reaction containing 50 nanograms of PCR-amplified target DNA and a final Buffer 2 (New England Biolabs) concentration of 1×. The cleavage reaction was for one hour at 37° C., followed by a 20 minute heat inactivation stage at 65° C. The reaction was then centrifuged at high speed to separate the target DNA from the lysate, causing the lysate to condense into a pellet in the reaction well. The DNA-containing supernatant was pipetted off and run on an ethidium bromide-stained agarose gel (Invitrogen) to separate intact target DNA from cleaved target DNA. The agarose gel was then analyzed using AlphaEaseFC (Alpha Innotech) software to measure the amount of target DNA present in the large uncleaved DNA band and the two smaller DNA bands resulting from a single cleavage event of the target DNA. The percentage of cleaved DNA out of the total amount of target DNA loaded into the gel represents the percent cleavage in each reaction.
# TALE13 N+137 C+95 = TALE13 N+137 C+95 (Xanthomonas axonopodis); test: DNA-binding ELISA; replicates; conditions: tags: N-terminal Met
# From the text: (§1) When clones #3, 4 and 5 were subjected to the SELEX procedure, no consensus sequences were detected. Thus it appears that the TALE binding domains require N- and C-terminal cap sequences comprised in from clone #2 to yield a consensus sequence in this assay. Additional truncations were made and tested for activity using a DNA binding ELISA assay essentially as described in Bartsevich et al., Stem Cells. 2003; 21:632-7. The truncations are presented below in Table 7, which also includes the ELISA results. The starting N-terminus in these truncations is at amino acid 152, identical to the N-terminus in the #1, #2, and #3 truncations discussed above. In this fine-scale truncation series, the end points are as follows.
# TALE13 N+121 C+52 = TALE13 N+121 C+52 (Xanthomonas axonopodis); test: DNA-binding ELISA; background level
# From the text: as §1
# TALE13 N+91 C+115 = TALE13 N+91 C+115 (Xanthomonas axonopodis); test: DNA-binding ELISA; background level
# From the text: as §1
# TALE13 N+100 C+115 = TALE13 N+100 C+115 (Xanthomonas axonopodis); test: DNA-binding ELISA; background level
# From the text: as §1
# TALE13 N+111 C+52 = TALE13 N+111 C+52 (Xanthomonas axonopodis); test: DNA-binding ELISA; background level
# From the text: as §1
# TALE13 N+100 C+52 = TALE13 N+100 C+52 (Xanthomonas axonopodis); test: DNA-binding ELISA; background level
# From the text: as §1
# TALE13 N+91 C+52 = TALE13 N+91 C+52 (Xanthomonas axonopodis); test: DNA-binding ELISA; background level
# From the text: as §1
binder,measurement,setting,value
B1,activity,TALE13 +50 FokI,83 % cleavage
same,binding result,TALE13 N+137 C+95,binds
same,binding result,TALE13 N+121 C+52,no binding
same,binding result,TALE13 N+91 C+115,no binding
same,binding result,TALE13 N+100 C+115,no binding
same,binding result,TALE13 N+111 C+52,no binding
same,binding result,TALE13 N+100 C+52,no binding
same,binding result,TALE13 N+91 C+52,no binding

# Reference: patent US20110301073, “Novel DNA-binding proteins and uses thereof” (Sangamo BioSciences, Inc., published 2011)
